Measurements as given in the supplement of paper PMC10065799, “High-throughput profiling of sequence recognition by tyrosine kinases and SH2 domains using bacterial peptide display” (eLife, 2023).

Key:
[1] = biological target: c-Src SH2; test: SH2 binding enrichment of the phosphorylated peptide, bacterial display (enrichment ratio); higher = better substrate or ligand; peptides without Tyr show the background
[2] = biological target: Grb2 SH2 (UniProt P62993); test: as above
[3] = biological target: SHP2-C SH2; test: as above
[4] = test system: c-Abl (mouse); test: phosphorylation enrichment, bacterial display (enrichment ratio); higher = better substrate or ligand; peptides without Tyr show the background
[5] = test system: Fer (mouse); test: as above
[6] = biological target: MERTK (UniProt Q12866); test: as above
MERTK, sequence (Q12866 whole entry, looked up): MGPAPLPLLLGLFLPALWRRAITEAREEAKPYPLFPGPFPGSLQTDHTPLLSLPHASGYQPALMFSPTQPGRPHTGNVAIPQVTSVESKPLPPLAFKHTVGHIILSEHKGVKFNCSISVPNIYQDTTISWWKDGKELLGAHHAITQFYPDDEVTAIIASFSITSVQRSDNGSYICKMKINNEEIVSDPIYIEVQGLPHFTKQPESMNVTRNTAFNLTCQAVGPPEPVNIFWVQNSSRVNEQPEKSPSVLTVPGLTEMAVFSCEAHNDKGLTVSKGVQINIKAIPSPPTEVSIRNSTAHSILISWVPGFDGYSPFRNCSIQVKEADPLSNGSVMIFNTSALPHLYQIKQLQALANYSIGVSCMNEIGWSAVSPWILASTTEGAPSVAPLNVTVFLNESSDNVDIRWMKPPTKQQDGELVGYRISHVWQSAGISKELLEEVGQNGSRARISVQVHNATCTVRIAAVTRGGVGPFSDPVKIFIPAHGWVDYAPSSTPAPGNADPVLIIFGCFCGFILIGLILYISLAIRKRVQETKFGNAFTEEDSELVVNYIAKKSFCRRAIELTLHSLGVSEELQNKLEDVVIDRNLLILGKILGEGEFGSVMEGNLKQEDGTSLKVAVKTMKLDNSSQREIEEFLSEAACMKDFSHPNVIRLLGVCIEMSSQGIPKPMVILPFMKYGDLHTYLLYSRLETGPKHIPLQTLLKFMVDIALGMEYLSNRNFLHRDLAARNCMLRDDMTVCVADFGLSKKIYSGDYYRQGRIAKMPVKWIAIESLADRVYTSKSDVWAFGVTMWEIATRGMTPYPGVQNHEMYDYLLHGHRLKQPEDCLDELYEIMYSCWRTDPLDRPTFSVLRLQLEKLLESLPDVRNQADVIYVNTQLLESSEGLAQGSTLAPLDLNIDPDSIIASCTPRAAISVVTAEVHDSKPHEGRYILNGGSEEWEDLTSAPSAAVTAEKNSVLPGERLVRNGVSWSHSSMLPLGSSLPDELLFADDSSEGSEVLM

[7] = biological target: FGFR3 (UniProt P22607); test: as above
[8] = test system: c-Src; test: as above
[9] = biological target: EPHB2 (UniProt P29323); test: as above
[10] = biological target: Fes (UniProt P07332); test: as above
Fes, sequence (P07332 whole entry, looked up): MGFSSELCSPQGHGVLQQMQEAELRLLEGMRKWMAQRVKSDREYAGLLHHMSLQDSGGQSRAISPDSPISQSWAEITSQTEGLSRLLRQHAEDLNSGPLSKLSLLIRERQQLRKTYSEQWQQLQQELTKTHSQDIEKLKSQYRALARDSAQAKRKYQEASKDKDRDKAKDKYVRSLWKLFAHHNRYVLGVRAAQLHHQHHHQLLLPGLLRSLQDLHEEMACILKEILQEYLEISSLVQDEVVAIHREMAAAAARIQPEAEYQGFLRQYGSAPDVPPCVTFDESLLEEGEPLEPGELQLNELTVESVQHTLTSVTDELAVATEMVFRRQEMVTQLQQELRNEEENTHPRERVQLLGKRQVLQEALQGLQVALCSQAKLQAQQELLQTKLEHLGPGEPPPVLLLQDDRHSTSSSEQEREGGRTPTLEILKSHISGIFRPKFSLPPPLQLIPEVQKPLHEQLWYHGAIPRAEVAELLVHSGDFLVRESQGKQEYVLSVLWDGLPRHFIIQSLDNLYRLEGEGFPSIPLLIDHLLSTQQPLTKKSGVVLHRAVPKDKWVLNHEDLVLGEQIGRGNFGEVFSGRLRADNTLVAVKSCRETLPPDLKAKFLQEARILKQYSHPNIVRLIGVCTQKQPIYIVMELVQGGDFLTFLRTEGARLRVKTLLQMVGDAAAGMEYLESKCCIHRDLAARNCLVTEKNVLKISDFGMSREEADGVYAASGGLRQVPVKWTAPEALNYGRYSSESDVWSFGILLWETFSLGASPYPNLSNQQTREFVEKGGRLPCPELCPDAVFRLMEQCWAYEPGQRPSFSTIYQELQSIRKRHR

[11] = biological target: EPHB1 (UniProt P54762); test: as above
EPHB1, sequence (P54762 whole entry, looked up): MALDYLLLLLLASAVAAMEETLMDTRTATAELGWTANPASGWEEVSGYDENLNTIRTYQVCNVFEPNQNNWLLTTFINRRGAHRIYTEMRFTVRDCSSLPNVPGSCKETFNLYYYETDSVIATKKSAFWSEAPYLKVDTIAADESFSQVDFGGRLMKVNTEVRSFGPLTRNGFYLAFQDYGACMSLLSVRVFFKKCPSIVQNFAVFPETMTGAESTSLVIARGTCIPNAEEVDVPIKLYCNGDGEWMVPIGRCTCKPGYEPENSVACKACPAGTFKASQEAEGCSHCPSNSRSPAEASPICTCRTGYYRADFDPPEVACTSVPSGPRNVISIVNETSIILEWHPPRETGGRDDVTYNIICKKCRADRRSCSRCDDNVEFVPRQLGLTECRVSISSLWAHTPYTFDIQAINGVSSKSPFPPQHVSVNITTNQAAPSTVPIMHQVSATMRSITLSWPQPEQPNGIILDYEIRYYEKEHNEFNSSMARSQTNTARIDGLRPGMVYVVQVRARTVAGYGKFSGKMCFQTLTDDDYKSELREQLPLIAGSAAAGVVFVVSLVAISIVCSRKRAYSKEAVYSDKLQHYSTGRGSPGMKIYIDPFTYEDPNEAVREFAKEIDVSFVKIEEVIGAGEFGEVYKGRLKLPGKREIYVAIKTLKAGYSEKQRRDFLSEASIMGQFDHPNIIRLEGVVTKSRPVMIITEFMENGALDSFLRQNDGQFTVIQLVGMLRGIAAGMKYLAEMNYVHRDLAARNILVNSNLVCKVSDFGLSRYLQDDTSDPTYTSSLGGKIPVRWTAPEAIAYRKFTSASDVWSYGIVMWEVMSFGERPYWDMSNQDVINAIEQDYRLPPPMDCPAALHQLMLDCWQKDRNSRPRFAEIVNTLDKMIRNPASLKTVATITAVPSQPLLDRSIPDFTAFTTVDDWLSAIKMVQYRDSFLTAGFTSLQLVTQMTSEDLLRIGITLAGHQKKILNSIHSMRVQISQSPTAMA

[12] = biological target: Fyn (UniProt P06241); test: as above
Fyn, sequence (P06241 whole entry, looked up): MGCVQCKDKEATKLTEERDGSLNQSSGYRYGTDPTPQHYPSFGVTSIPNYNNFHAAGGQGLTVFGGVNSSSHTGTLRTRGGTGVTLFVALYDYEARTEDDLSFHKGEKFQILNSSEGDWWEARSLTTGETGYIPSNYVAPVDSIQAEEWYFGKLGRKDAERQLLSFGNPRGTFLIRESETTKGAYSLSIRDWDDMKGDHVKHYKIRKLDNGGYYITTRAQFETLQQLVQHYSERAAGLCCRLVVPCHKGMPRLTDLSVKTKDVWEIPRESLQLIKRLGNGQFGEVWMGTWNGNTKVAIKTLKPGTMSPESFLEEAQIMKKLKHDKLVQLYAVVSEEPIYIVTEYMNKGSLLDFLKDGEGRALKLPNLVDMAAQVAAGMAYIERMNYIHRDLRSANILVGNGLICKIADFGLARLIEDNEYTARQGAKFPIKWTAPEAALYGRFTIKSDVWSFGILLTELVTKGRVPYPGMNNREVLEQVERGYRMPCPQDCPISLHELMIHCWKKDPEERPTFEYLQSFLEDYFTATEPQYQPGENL

[13] = biological target: Hck (UniProt P08631); test: as above
[14] = biological target: Jak2 (UniProt O60674); test: as above
Jak2, sequence (O60674 whole entry, looked up): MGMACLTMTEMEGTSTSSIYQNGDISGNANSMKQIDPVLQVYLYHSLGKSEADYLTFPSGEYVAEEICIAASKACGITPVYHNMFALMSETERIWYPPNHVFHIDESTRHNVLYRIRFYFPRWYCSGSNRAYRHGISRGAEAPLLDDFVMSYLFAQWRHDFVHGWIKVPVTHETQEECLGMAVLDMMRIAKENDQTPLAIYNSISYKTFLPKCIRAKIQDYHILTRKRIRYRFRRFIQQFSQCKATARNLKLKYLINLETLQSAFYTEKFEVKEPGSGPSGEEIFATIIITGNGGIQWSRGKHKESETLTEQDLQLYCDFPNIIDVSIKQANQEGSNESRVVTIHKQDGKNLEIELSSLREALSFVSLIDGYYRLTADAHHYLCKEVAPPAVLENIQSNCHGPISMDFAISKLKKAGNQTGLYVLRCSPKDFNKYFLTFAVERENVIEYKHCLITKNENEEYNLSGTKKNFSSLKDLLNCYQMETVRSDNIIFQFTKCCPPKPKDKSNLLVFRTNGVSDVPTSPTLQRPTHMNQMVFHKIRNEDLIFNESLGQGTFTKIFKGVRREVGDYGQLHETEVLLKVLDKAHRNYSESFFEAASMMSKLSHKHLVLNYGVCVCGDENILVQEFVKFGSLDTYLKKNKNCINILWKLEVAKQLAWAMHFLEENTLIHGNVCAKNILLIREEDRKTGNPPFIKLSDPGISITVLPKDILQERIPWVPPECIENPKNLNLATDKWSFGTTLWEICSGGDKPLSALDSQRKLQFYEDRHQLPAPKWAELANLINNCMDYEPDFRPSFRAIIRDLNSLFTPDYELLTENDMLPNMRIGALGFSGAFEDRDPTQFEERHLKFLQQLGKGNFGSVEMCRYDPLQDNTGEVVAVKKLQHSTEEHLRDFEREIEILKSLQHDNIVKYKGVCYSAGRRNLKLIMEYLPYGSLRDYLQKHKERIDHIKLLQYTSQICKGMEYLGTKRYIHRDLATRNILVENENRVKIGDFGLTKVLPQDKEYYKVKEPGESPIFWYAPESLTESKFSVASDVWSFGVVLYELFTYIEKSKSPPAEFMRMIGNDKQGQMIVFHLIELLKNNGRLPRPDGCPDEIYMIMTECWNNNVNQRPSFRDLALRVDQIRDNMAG

[15] = test system: AncSZ; test: as above
[16] = biological target: FGFR1 (UniProt P11362); test: as above
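Wherever SH2 binding enrichment of the phosphorylated peptide, bacterial display is given: peptide library displayed on the E. coli surface as eCPX fusions, selected cells deep-sequenced, score is each peptide's frequency after selection divided by its frequency in the input.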
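Wherever phosphorylation enrichment, bacterial display is given: 11-residue human phosphosite peptides and single-mutation variants displayed on the E. coli surface, counted by deep sequencing, each peptide's frequency after selection divided by its frequency in the unselected input library; frequency after pTyr selection over input frequency; kinase dosed for 20-30% of maximal phosphorylation in three min.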

Grb2 SH2, sequence (P62993 whole entry, looked up): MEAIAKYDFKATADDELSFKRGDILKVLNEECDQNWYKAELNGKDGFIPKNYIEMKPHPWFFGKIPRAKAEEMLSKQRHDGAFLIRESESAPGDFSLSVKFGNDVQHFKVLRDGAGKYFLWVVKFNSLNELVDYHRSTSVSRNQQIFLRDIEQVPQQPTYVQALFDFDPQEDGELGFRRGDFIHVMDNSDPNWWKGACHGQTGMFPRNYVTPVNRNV

Row | Sequence | SH2 binding enrichment [1] | SH2 binding enrichment [2] | SH2 binding enrichment [3] | phosphorylation enrichment [4] | phosphorylation enrichment [5] | phosphorylation enrichment [6] | phosphorylation enrichment [7] | phosphorylation enrichment [8] | phosphorylation enrichment [9] | phosphorylation enrichment [10] | phosphorylation enrichment [11] | phosphorylation enrichment [12] | phosphorylation enrichment [13] | phosphorylation enrichment [14] | phosphorylation enrichment [15] | phosphorylation enrichment [16]
1 | MTEEQYIKMNR [ARFGEF2_Y797_K794E] | 0.376 | 0.674 | 0.435 | 0.612 | 0.524 | 0.386 | 0.638 | 0.441 | 0.502 | 1.09 | 0.478 | 0.451 | 0.493 | 1.02 | 0.941 | 0.558
2 | MTFQNYGQALF [FAM20C_Y279] | 0.515 | 0.921 | 0.783 | 0.605 | 0.496 | 0.429 | 0.739 | 0.489 | 1.65 | 0.827 | 0.758 | 0.458 | 0.462 | 0.893 | 0.901 | 0.46
3 | MTRDIYETDFF [INSR_Y1185_YF] | 0.997 | 0.855 | 0.565 | 0.909 | 1.15 | 1.22 | 0.821 | 2.06 | 0.788 | 1.39 | 0.936 | 1.93 | 1.4 | 1.23 | 1.13 | 0.56
4 | MYQVQYNSSVD [LRFN1_Y458] | 0.514 | 0.735 | 0.748 | 0.52 | 0.52 | 0.699 | 0.686 | 0.417 | 0.69 | 0.963 | 0.606 | 0.559 | 0.505 | 0.721 | 1.05 | 0.488
5 | NAGAFYALSTL [FLVCR2_Y325] | 0.592 | 0.979 | 0.837 | 0.608 | 3.19 | 4.76 | 0.649 | 1.23 | 0.784 | 0.764 | 0.822 | 0.567 | 0.752 | 0.751 | 0.784 | 0.61
6 | NAGAFYVLSTL [FLVCR2_Y325_A326V] | 0.489 | 0.634 | 0.6 | 0.69 | 0.525 | 0.705 | 0.699 | 0.523 | 0.573 | 1.17 | 0.55 | 0.464 | 0.476 | 0.995 | 1.03 | 0.483
7 | NAPNSYGRRLI [CDKN2A_Y44_P48L] | 0.332 | 0.897 | 0.32 | 0.48 | 0.475 | 0.442 | 0.509 | 0.449 | 0.454 | 0.616 | 0.372 | 0.413 | 0.504 | 0.531 | 0.627 | 0.446
8 | NDLMEYAKQHG [ASS1_Y163] | 0.381 | 0.724 | 0.621 | 0.75 | 0.541 | 0.426 | 0.563 | 0.437 | 0.471 | 0.896 | 0.48 | 0.457 | 0.502 | 0.856 | 0.852 | 0.487
9 | NDTAGYFIIGG [SEL1L3_Y399] | 7.59 | 0.693 | 0.812 | 0.78 | 0.494 | 0.834 | 1.34 | 0.584 | 0.523 | 1.14 | 0.547 | 0.582 | 0.601 | 6.38 | 1.15 | 1.77
10 | NFFDTCIKTCL [IQGAP2_Y1445_Y1445C_YF] | 1.01 | 1.15 | 1.06 | 0.721 | 0.45 | 0.523 | 0.607 | 0.521 | 0.491 | 1.01 | 0.484 | 0.369 | 0.407 | 0.879 | 0.809 | 0.476
11 | NFNPNYCFAGK [ALK_Y1096_D1091N_YF] | 0.681 | 0.876 | 0.881 | 0.617 | 0.706 | 0.846 | 0.666 | 0.472 | 1.01 | 0.821 | 2.56 | 0.612 | 0.651 | 0.744 | 1.25 | 0.548
12 | NFRPGYNNFFN [USH2A_Y467_YF] | 0.497 | 0.9 | 0.686 | 0.574 | 0.389 | 0.433 | 0.549 | 0.64 | 0.483 | 0.772 | 0.354 | 0.522 | 0.466 | 0.712 | 0.773 | 0.519
13 | NGSKAYAYVHF [PABPC5_Y147_G146A] | 6.01 | 0.903 | 18.8 | 0.634 | 0.637 | 0.656 | 0.646 | 0.401 | 0.52 | 1.03 | 0.514 | 0.4 | 0.438 | 0.796 | 1.06 | 0.568
14 | NGVSFYINLCQ [IGF2R_Y2025_YF] | 0.396 | 0.791 | 0.651 | 1.16 | 0.671 | 0.478 | 1.01 | 0.472 | 0.699 | 2 | 1.11 | 0.452 | 0.567 | 1.92 | 1.5 | 0.568
15 | NHFKIHNLCAE [PTEN_Y68_Y68H_YF] | 0.513 | 1.04 | 0.751 | 0.367 | 0.384 | 0.437 | 0.441 | 0.432 | 0.374 | 0.642 | 0.384 | 0.466 | 0.394 | 0.459 | 0.58 | 0.428
16 | NKVKFYIPDMN [NCR1_Y84] | 0.854 | 0.954 | 0.849 | 0.602 | 0.448 | 0.388 | 0.66 | 0.567 | 0.476 | 0.865 | 0.496 | 0.396 | 0.432 | 0.8 | 0.743 | 0.432
